Measurements published in patent publication US20210063414A1, “METHODS FOR PREVENTING AND/OR TREATING BONE LOSS CONDITIONS BY MODULATING IRISIN” (Dana-Farber Cancer Institute, Inc., priority 2018, published 2021).
Entries after “also recorded” stand apart in the source; their conditions may differ.

Assays:
integrin αV/β5 [1] = assay: Protein-protein binding assay: irisin with his-tag integrins, Ni-NTA co-precipitation and immunoblot; parameters: species or system murine and human; details: 100 nM irisin, 5 nM his-tag integrin
Protocol: 100 nM irisin was incubated with 5 nM indicated his-tag integrins followed by immunoprecipitation using Ni-NTA agaroses. Precipitated integrins and co-precipitated irisin were analyzed by immunoblot analysis. […] HEK293T cells were seeded and incubated until 50% cell density. The cells were transfected with 0.1 μg plasmids of indicated integrins. After 48 hours, the cells were incubated with Freestyle293 medium for 3 hours and were treated with indicated concentration of irisin for 5 minutes. Cells were lysed to detect the indicated protein level using immunoblot analysis. […] Sclerostin mRNA level was analyzed by qRT-PCR. […]
100 nM irisin was incubated with 5 nM indicated his-tag integrins followed by immunoprecipitation using Ni-NTA agaroses. Precipitated integrins and co-precipitated irisin were analyzed by immunoblot analysis. […] Cells were treated and analyzed as FIG. 14B except using plasmids encoding integrin α5/β1 or integrin α11/β1 (FIG. 15C) integrin αV/β1(FIG. 15D).
100 nM flag-tagged mammalian irisin was incubated with 5 nM of the indicated his-tag integrins in a final volume of 600 μl in 1.5 ml Protein LoBind Tubes (Eppendorf®, 022431081) for 5 minutes at room temperature under rotation. […] Precipitated integrins were detected by immunoblot analysis against his tag. Co-precipitated irisin was detected by immunoblot analysis against flag-tag.

integrin αV/β5 [2] = target: integrin αV/β5 (Homo sapiens, UniProt P06756+P18084); assay: Differential HDX/MS of irisin and integrin αV/β5; format: binding; details: 10 μM irisin, 30 μM integrin αV/β5
Protocol: Differential HDX-MS experiments were conducted as previously described with a few modifications (Chalmers et al. (2006) Anal. Chen. 78:1005-1014).
Protein samples were injected for inline pepsin digestion and the resulting peptides were identified using tandem MS (MS/MS) with an Orbitrap™ mass spectrometer (Fusion Lumos, ThermoFisher). Following digestion, peptides were desalted on a C8 trap column and separated on a 1 hour linear gradient of 5-40% B (A is 0.3% formic acid and B is 0.3% formic acid 95% CH3CN). Product ion spectra were acquired in data-dependent mode with a one second duty cycle such that the most abundant ions selected for the product ion analysis by higher-energy collisional dissociation between survey scan events occurring once per second. Following MS2 acquisition, the precursor ion was excluded for 16 seconds. […]
HDX-MS analysis: Apo proteins (irisin and integrin αV/β5) were analyzed at 10 μM each. […] The intensity weighted mean m/z centroid value of each peptide envelope was calculated and subsequently converted into a percentage of deuterium incorporation. […] Statistical significance for the differential HDX data was determined by an unpaired t-test for each time point, a procedure that was integrated into the HDX Workbench software (Pascal et al. (2012) J Am. Soc. Mass Spectrom. 23:1512-1521). […]

Chain of integrin αV/β5 (Homo sapiens, UniProt P06756+P18084) (P18084 24-719 limits assumed): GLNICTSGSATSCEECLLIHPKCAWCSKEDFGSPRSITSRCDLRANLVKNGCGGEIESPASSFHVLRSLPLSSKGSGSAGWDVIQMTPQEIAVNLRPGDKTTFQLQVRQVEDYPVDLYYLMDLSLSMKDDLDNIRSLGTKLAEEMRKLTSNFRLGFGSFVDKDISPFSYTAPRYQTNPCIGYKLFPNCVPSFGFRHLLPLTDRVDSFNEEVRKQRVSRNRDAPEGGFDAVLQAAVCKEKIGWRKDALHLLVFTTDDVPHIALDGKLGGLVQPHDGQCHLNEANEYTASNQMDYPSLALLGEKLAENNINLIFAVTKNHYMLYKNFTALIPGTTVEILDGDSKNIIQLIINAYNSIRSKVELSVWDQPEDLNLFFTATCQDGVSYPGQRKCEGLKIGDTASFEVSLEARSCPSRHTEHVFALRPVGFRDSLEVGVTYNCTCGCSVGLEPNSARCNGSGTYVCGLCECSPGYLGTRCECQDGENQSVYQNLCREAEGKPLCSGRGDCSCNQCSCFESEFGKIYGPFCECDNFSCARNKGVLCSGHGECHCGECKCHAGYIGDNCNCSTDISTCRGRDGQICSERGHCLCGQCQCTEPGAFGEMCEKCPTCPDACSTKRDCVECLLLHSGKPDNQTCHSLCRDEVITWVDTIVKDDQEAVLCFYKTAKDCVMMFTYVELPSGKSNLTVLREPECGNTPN
Chain of integrin αV/β5 (Homo sapiens, UniProt P06756+P18084) (P06756 31-889 limits assumed): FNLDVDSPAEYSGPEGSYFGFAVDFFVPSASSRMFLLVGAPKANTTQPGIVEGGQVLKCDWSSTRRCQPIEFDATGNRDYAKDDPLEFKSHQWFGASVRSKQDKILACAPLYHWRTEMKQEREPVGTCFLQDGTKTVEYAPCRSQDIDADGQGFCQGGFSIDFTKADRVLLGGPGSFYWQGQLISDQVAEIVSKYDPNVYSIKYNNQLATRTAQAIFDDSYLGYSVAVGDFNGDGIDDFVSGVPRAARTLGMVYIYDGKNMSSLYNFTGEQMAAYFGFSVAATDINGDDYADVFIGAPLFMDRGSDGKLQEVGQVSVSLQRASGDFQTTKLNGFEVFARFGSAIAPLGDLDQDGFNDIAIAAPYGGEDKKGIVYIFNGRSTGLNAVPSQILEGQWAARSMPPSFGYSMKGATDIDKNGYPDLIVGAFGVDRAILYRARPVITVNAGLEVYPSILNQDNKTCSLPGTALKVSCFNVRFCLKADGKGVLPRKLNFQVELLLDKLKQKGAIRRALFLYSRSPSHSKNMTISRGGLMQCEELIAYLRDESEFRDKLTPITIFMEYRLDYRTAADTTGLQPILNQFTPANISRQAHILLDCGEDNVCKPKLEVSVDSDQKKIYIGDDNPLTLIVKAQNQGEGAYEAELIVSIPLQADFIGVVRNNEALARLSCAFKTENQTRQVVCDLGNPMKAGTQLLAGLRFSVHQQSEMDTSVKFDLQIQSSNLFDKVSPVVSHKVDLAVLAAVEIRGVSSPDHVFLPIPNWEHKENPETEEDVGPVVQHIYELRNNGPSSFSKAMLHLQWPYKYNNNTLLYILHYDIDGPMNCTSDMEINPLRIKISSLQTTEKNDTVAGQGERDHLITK
Chain of integrin αV/β5 (Homo sapiens, UniProt P06756+P18084) (P06756 891-992 partner limits assumed): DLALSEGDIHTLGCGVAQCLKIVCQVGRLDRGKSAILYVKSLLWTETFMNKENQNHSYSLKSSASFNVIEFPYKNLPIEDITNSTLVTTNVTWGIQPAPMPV

B1: irisin: secreted cleaved form of FNDC5; recombinant human/mouse irisin with C-terminal his tag produced in HEK293 cells (protein)
chain: DSPSAPVNVTVRHLKANSAVVSWDVLEDEVVIGFAISQQKKDVRMLRFIQEVNTTTRSCALWDLEEDTEYIVHVQAISIQGQSPASEPVLFKTPREAEKMASKNKDEVTMKE
modifications: left off: small tags and cut ends
notes: secreted cleaved form of FNDC5; recombinant human/mouse irisin with C-terminal his tag produced in HEK293 cells
extent of binding of irisin to integrin complex (integrin αV/β5 [1]): by far the highest extent of binding; also recorded: highest apparent affinity | direct interaction with integrin αV/β5 (HDX/MS) (integrin αV/β5 [2]): directly binds integrin αV/β5
